The test system of assay [1] is HBV. The assay can be described thus: HBV level in HepAD38 cells, immunoblot. In kind it is cell-based. Conditions: α2M 20 nM, 24 h.
In assay [2] the test system is DNA and RNA viruses. Put plainly: Antiviral effect against DNA and RNA viruses (summary). Type of assay: cell-based. The note with it: dosages within the biosafety range (<1.5 mg/100 ml). As to the method: Fig. 6 Inhibition of extracellular LRPAP1 reinforces the host cell’s innate immunity against multiple viruses’ infection. a–c RD cells were transfected with scramble siRNA or siLRPAP1 for 24 h. Then the cells were infected with HCoV-OC43 at an MOI of 1 for 72 h or HSV-1 at the indicated MOI for 24 h. Viral RNA level of HCoV-OC43 was analysed by RT-qPCR (a). Viral titer of HCoV-OC43 was measured by TCID50 assay (b). The relative viral DNA level of HSV-1 was analysed by RT-qPCR (c). d Immunoblots of lysates in HepAD38 cells transfected with scramble siRNA or siLRPAP1 for 48 h. e RD cells were transfected with scramble siRNA or siLRPAP1-1/-2 (si-1, si-2) for 24 h. Then the cells were infected with ZIKV at an MOI of 1 for 24 h. Viral RNA level of ZIKV was analysed by RT-qPCR. f, g The inhibitory effect of anti-LRPAP1 for HSV-1 infection. […] Densitometric analysis of VP1 levels in Fig. 6(i) was quantified and normalized with GAPDH using ImageJ (j). Densitometric analysis of HSV Envelope levels in Fig. 6(k) was quantified and normalized with GAPDH using ImageJ (l). m The schematic diagram of virus circumventing type I IFN signaling through LRPAP1.
a, The effect of siLRPAP1 on the infection of HCoV-OC43. […] Viral RNA level of HCoV-OC43 was analysed by RT-qPCR. b, RD cells were transfected with scramble siRNA or siLRPAP1 for 24 h, and cells were then inoculated with HCoV-OC43 at an MOI of 1 for 72 h. […]

Assay [3] relates to HCoV-OC43. Put plainly: HCoV-OC43 infection of RD cells (viral RNA, TCID50, CPE). Conditions: α2M 20 nM pre-treatment 1 h, MOI 1, 72 h.
For assay [4], the system named is EV71. The assay can be described thus: EV71 infection of RD cells (viral RNA, titer, viral protein, CPE). The note with it: α2M 20 nM, added 3 h post infection MOI 10, 6 h.
Assay [5] has as its system IFNAR1. Put plainly: IFNAR1 protein level, immunoblot, HEK-293T cells. In kind it is cell-based, human. The note with it: HEK-293T, rLRPAP1 200 nM, α2M 20 nM, 1 h.
For assay [6], the system named is HSV-1. The assay can be described thus: HSV-1 infection of RD cells (viral DNA, TCID50, viral protein, CPE). Conditions: α2M 20 nM, added 3 h post infection MOI 10, 21 h.
Assay [7] has as its system IFNAR1. The assay can be described thus: IFNAR1 protein level, immunoblot / immunofluorescence, RD cells. In kind it is cell-based. Conditions: EV71 or HSV-1 MOI 10; α2M 20 nM, LF 400 nM. For orientation: A western blot detects proteins with antibodies after separation by electrophoresis.
Assay [8] concerns IFNAR1. Put plainly: IFNAR1 protein level, HepAD38 cells, immunoblot. Conditions: siRNA or overexpression 48 h; LF 400 nM 24 h. In kind it is cell-based.

B1: alpha-2-macroglobulin (protein, UniProt P01023 24-1474, looked up)
Alpha-2-macroglobulin: SVSGKPQYMVLVPSLLHTETTEKGCVLLSYLNETVTVSASLESVRGNRSLFTDLEAENDVLHCVAFAVPKSSSNEEVMFLTVQVKGPTQEFKKRTTVMVKNEDSLVFVQTDKSIYKPGQTVKFRVVSMDENFHPLNELIPLVYIQDPKGNRIAQWQSFQLEGGLKQFSFPLSSEPFQGSYKVVVQKKSGGRTEHPFTVEEFVLPKFEVQVTVPKIITILEEEMNVSVCGLYTYGKPVPGHVTVSICRKYSDASDCHGEDSQAFCEKFSGQLNSHGCFYQQVKTKVFQLKRKEYEMKLHTEAQIQEEGTVVELTGRQSSEITRTITKLSFVKVDSHFRQGIPFFGQVRLVDGKGVPIPNKVIFIRGNEANYYSNATTDEHGLVQFSINTTNVMGTSLTVRVNYKDRSPCYGYQWVSEEHEEAHHTAYLVFSPSKSFVHLEPMSHELPCGHTQTVQAHYILNGGTLLGLKKLSFYYLIMAKGGIVRTGTHGLLVKQEDMKGHFSISIPVKSDIAPVARLLIYAVLPTGDVIGDSAKYDVENCLANKVDLSFSPSQSLPASHAHLRVTAAPQSVCALRAVDQSVLLMKPDAELSASSVYNLLPEKDLTGFPGPLNDQDNEDCINRHNVYINGITYTPVSSTNEKDMYSFLEDMGLKAFTNSKIRKPKMCPQLQQYEMHGPEGLRVGFYESDVMGRGHARLVHVEEPHTETVRKYFPETWIWDLVVVNSAGVAEVGVTVPDTITEWKAGAFCLSEDAGLGISSTASLRAFQPFFVELTMPYSVIRGEAFTLKATVLNYLPKCIRVSVQLEASPAFLAVPVEKEQAPHCICANGRQTVSWAVTPKSLGNVNFTVSAEALESQELCGTEVPSVPEHGRKDTVIKPLLVEPEGLEKETTFNSLLCPSGGEVSEELSLKLPPNVVEESARASVSVLGDILGSAMQNTQNLLQMPYGCGEQNMVLFAPNIYVLDYLNETQQLTPEIKSKAIGYLNTGYQRQLNYKHYDGSYSTFGERYGRNQGNTWLTAFVLKTFAQARAYIFIDEAHITQALIWLSQRQKDNGCFRSSGSLLNNAIKGGVEDEVTLSAYITIALLEIPLTVTHPVVRNALFCLESAWKTAQEGDHGSHVYTKALLAYAFALAGNQDKRKEVLKSLNEEAVKKDNSVHWERPQKPKAPVGHFYEPQAPSAEVEMTSYVLLAYLTAQPAPTSEDLTSATNIVKWITKQQNAQGGFSSTQDTVVALHALSKYGAATFTRTGKAAQVTIQSSGTFSSKFQVDNNNRLLLQQVSLPELPGEYSMKVTGEGCVYLQTSLKYNILPEKEEFPFALGVQTLPQTCDEPKAHTSFQISLSVSYTGSRSASNMAIVDVKMVSGFIPLKPTVKMLERSNHVSRTEVSSNHVLIYLDKVSNQTLSLFFTVLQDVPVRDLKPAIVKVYDYYETDEFAIAEYNAPCSKDLGNA
Turning to B1, the “HBV propagation (HBc)” value in assay [1] was “significantly inhibited both DNA and RNA virus propagation”. For the same molecule, the antiviral effect result in assay [2] is on record as “promising antiviral effects”. Further, the HCoV-OC43 propagation result in assay [3] was “significantly inhibited both DNA and RNA virus propagation”. In assay [4], the “EV71 propagation (VP1)” value was “significantly inhibited both DNA and RNA virus propagation”. Besides, in assay [5], the “IFNAR1 level in cells treated with rLRPAP1” value was “markedly upregulated IFNAR1”. For the same molecule, in assay [6], the “HSV-1 propagation (Envelope)” value was “significantly inhibited both DNA and RNA virus propagation”. In addition, the “IFNAR1 level under viral infections” value in assay [7] is on record as “markedly upregulated IFNAR1”.

B2: lactoferrin (protein, UniProt P02788 20-710, looked up)
Lactotransferrin: GRRRSVQWCAVSQPEATKCFQWQRNMRKVRGPPVSCIKRDSPIQCIQAIAENRADAVTLDGGFIYEAGLAPYKLRPVAAEVYGTERQPRTHYYAVAVVKKGGSFQLNELQGLKSCHTGLRRTAGWNVPIGTLRPFLNWTGPPEPIEAAVARFFSASCVPGADKGQFPNLCRLCAGTGENKCAFSSQEPYFSYSGAFKCLRDGAGDVAFIRESTVFEDLSDEAERDEYELLCPDNTRKPVDKFKDCHLARVPSHAVVARSVNGKEDAIWNLLRQAQEKFGKDKSPKFQLFGSPSGQKDLLFKDSAIGFSRVPPRIDSGLYLGSGYFTAIQNLRKSEEEVAARRARVVWCAVGEQELRKCNQWSGLSEGSVTCSSASTTEDCIALVLKGEADAMSLDGGYVYTAGKCGLVPVLAENYKSQQSSDPDPNCVDRPVEGYLAVAVVRRSDTSLTWNSVKGKKSCHTAVDRTAGWNIPMGLLFNQTGSCKFDEYFSQSCAPGSDPRSNLCALCIGDEQGENKCVPNSNERYYGYTGAFRCLAENAGDVAFVKDVTVLQNTDGNNNEAWAKDLKLADFALLCLDGKRKPVTEARSCHLAMAPNHAVVSRMDKVERLKQVLLHQQAKFGRNGSDCPDKFCLFQSETKNLLFNDNTECLARLHGKTTYEKYLGPQYVAGITNLKKCSTSPLLEACEFLRK
As for B2, the “IFNAR1 expression in HepAD38 cells” value in assay [8] is listed as “but not LF”. In addition, the “IFNAR1 level under viral infections” value in assay [7] is recorded as “but not LF”.
